Source: paper doi:10.1101/2021.01.21.427698 (bioRxiv, 2021)

B1: human SEPT9_i3 with a noncleavable C-terminal Strep-tag-II (as in the mammalian octamers-9_i3) (natural protein)
chain: MERDRISALKRSFEVEEVETPNSTPPRRVQTPLLRATVASSTQKFQDLGVKNSEPSARHVDSLSQRSPKASLRRVELSGPKAAEPVSRRTELSIDISSKQVENAGAIGPSRFGLKRAEVLGHKTPEPAPRRTEITIVKPQESAHRRMEPPASKVPEVPTAPATDAAPKRVEIQMPKPAEAPTAPSPAQTLENSEPAPVSQLQSRLEPKPQPPVAEATPRSQEATEAAPSCVGDMADTPRDAGLKQAPASRNEKAPVDFGYVGIDSILEQMRRKAMKQGFEFNIMVVGQSGLGKSTLINTLFKSKISRKSVQPTSEERIPKTIEIKSITHDIEEKGVRMKLTVIDTPGFGDHINNENCWQPIMKFINDQYEKYLQEEVNINRKKRIPDTRVHCCLYFIPATGHSLRPLDIEFMKRLSKVVNIVPVIAKADTLTLEERVHFKQRITADLLSNGIDVYPQKEFDEDSEDRLVNEKFREMIPFAVVGSDHEYQVNGKRILGRKTKWGTIEVENTTHCEFAYLRDLLIRTHMQNIKDITSSIHFEAYRVKRLNEGSSAMANGVEEKEPEAPEM
B2: human SEPT2 with a TEV-cleavable N-terminal His6-tag (natural protein)
chain: MSKQQPTQFINPETPGYVGFANLPNQVHRKSVKKGFEFTLMVVGESGLGKSTLINSLFLTDLYPERVIPGAAEKIERTVQIEASTVEIEERGVKLRLTVVDTPGYGDAINCRDCFKTIISYIDEQFERYLHDESGLNRRHIIDNRVHCCFYFISPFGHGLKPLDVAFMKAIHNKVNIVPVIAKADTLTLKERERLKKRILDEIEEHNIKIYHLPDAESDEDEDFKEQTRLLKASIPFSVVGSNQLIEAKGKKVRGRLYPWGVVEVENPEHNDFLKLRTMLITHMQDLQEVTQDLHYENFRSERLKRGGRKVENEDMNKDQILLEKEAELRRMQEMIARMQAQMQMQMQGGDGDGGALGHHV
B3: human SEPT6 (natural protein)
chain: MAATDIARQVGEGCRTVPLAGHVGFDSLPDQLVNKSVSQGFCFNILCVGETGLGKSTLMDTLFNTKFEGEPATHTQPGVQLQSNTYDLQESNVRLKLTIVSTVGFGDQINKEDSYKPIVEFIDAQFEAYLQEELKIRRVLHTYHDSRIHVCLYFIAPTGHSLKSLDLVTMKKLDSKVNIIPIIAKADAISKSELTKFKIKITSELVSNGVQIYQFPTDDESVAEINGTMNAHLPFAVIGSTEELKIGNKMMRARQYPWGTVQVENEAHCDFVKLREMLIRVNMEDLREQTHTRHYELYRRCKLEEMGFKDTDPDSKPFSLQETYEAKRNEFLGELQKKEEEMRQMFVQRVKEKEAELKEAEKELHEKFDRLKKLHQDEKKKLEDKKKSLDDEVNAFKQRKTAAELLQSQGSQAGGSQTLKRDKEKKN

Legend:
[1] = target: the molecule itself; experiment: negative-stain single-particle electron microscopy
[2] = target: B3; experiment: two-tag affinity co-purification of co-expressed proteins
[3] = target: B2

Binder: B1
- binding result [1]: binds

Binder: B2
- binding result [2]: binds

Binder: B3
- stoichiometry N [3]: 1
